Experimental data from IntAct's records for PubMed 23681068.

B1: RNA-binding protein FUS (Homo sapiens), P35637 (parent)
chain: MASNDYTQQATQSYGAYPTQPGQGYSQQSSQPYGQQSYSGYSQSTDTSGYGQSSYSSYGQSQNTGYGTQSTPQGYGSTGGYGSSQSSQSSYGQQSSYPGYGQQPAPSSTSGSYGSSSQSSSYGQPQSGSYSQQPSYGGQQQSYGQQQSYNPPQGYGQQNQYNSSSGGGGGGGGGGNYGQDQSSMSSGGGSGGGYGNQDQSGGGGSGGYGQQDRGGRGRGGSGGGGGGGGGGYNRSSGGYEPRGRGGGRGGRGGMGGSDRGGFNKFGGPRDQGSRHDSEQDNSDNNTIFVQGLGENVTIESVADYFKQIGIIKTNKKTGQPMINLYTDRETGKLKGEATVSFDDPPSAKAAIDWFDGKEFSGNPIKVSFATRRADFNRGGGNGRGGRGRGGPMGRGGYGGGGSGGGGRGGFPSGGGGGGGQQRAGDWKCPNPTCENMNFSWRNECNQCKAPKPDGPGGGPGGSHMGGNYGDDRRGGRGGYDRGGYRGRGGDRGGFRGGRGGGDRGGFGPGKMDSRGEHRQDRRERPY

Variants of: B1
Settings: with smn_mouse Smn1, P97801
smn_mouse Smn1, P97801, sequence (P97801 whole entry): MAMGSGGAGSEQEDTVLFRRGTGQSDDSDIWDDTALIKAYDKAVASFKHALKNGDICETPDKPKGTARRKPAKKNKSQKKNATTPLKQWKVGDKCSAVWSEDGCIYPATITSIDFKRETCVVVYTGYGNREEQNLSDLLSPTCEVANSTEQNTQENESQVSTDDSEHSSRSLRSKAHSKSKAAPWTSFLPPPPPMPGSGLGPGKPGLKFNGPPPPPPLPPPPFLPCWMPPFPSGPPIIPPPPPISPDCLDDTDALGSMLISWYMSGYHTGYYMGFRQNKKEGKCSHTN

Row | Variant | effect of a mutation on the interaction
1 | MASNDYTQQATQSYGAYPTQPGQGYSQQSSQPYGQQSYSGYSQSTDTSGYGQSSYSSYGQSQNTGYGTQSTPQGYGSTGGYGSSQSSQSSYGQQSSYPGYGQQPAPSSTSGSYGSSSQSSSYGQPQSGSYSQQPSYGGQQQSYGQQQSYNPPQGYGQQNQYNSSSGGGGGGGGGGNYGQDQSSMSSGGGSGGGYGNQDQSGGGGSGGYGQQDRGGRGRGGSGGGGGGGGGGYNRSSGGYEPRGRGGGRGGRGGMGGSDRGGFNKFGGPRDQGSRHDSEQDNSDNNTIFVQGLGENVTIESVADYFKQIGIIKTNKKTGQPMINLYTDRETGKLKGEATVSFDDPPSAKAAIDWFDGKEFSGNPIKVSFATRRADFNRGGGNGRGGRGRGGPMGRGGYGGGGSGGGGRGGFPSGGGGGGGQQRAGDWKCPNPTCENMNFSWRNECNQCKAPKPDGPGGGPGGSHMGGNYGDDRRGGRGGYDRGGYRGRGGDRGGFRGGRGGGDRGGFGPGKMDSRGEHRQDHRERPY [R521H] | increasing interaction strength
2 | MASNDYTQQATQSYGAYPTQPGQGYSQQSSQPYGQQSYSGYSQSTDTSGYGQSSYSSYGQSQNTGYGTQSTPQGYGSTGGYGSSQSSQSSYGQQSSYPGYGQQPAPSSTSGSYGSSSQSSSYGQPQSGSYSQQPSYGGQQQSYGQQQSYNPPQGYGQQNQYNSSSGGGGGGGGGGNYGQDQSSMSSGGGSGGGYGNQDQSGGGGSGGYGQQDRGGRGRGGSGGGGGGGGGGYNRSSGGYEPRGRGGGRGGRGGMGGSDRGGFNKFGGPRDQGSRHDSEQDNSDNNTIFVQGLGENVTIESVADYFKQIGIIKTNKKTGQPMINLYTDRETGKLKGEATVSFDDPPSAKAAIDWFDGKEFSGNPIKVSFATRRADFNRGGGNGRGGRGRGGPMGRGGYGGGGSGGGGRGGFPSGGGGGGGQQRAGDWKCPNPTCENMNFSWRNECNQCKAPKPDGPGGGPGGSHMGGNYGDDRRGGRGGYDRGGYRGRGGDRGGFRGGRGGGDRGGFGPGKMDSRGEHRQDCRERPY [R521C] | increasing interaction strength
3 | MASNDYTQQATQSYGAYPTQPGQGYSQQSSQPYGQQSYSGYSQSTDTSGYGQSSYSSYGQSQNTGYGTQSTPQGYGSTGGYGSSQSSQSSYGQQSSYPGYGQQPAPSSTSGSYGSSSQSSSYGQPQSGSYSQQPSYGGQQQSYGQQQSYNPPQGYGQQNQYNSSSGGGGGGGGGGNYGQDQSSMSSGGGSGGGYGNQDQSGGGGSGGYGQQDRGGRGRGGSGGGGGGGGGGYNRSSGGYEPRGRGGGRGGRGGMGGSDRGGFNKFGGPRDQGSRHDSEQDNSDNNTIFVQGLGENVTIESVADYFKQIGIIKTNKKTGQPMINLYTDRETGKLKGEATVSFDDPPSAKAAIDWFDGKEFSGNPIKVSFATRRADFNRGGGNGRGGRGRGGPMGRGGYGGGGSGGGGRGGFPSGGGGGGGQQRAGDWKCPNPTCENMNFSWRNECNQCKAPKPDGPGGGPGGSHMGGNYGDDRRGGRGGYDRGGYRGRGGDRGGFRGGRGGGDRGGFGPGKMDSRGEHRQDRRERLY [P525L] | increasing interaction strength

Variants of: B1
Settings: with smn_mouse Smn1, P97801
Remark: another data set of the same source

Row | Variant | effect of a mutation on the interaction
4 | MASNDYTQQATQSYGAYPTQPGQGYSQQSSQPYGQQSYSGYSQSTDTSGYGQSSYSSYGQSQNTGYGTQSTPQGYGSTGGYGSSQSSQSSYGQQSSYPGYGQQPAPSSTSGSYGSSSQSSSYGQPQSGSYSQQPSYGGQQQSYGQQQSYNPPQGYGQQNQYNSSSGGGGGGGGGGNYGQDQSSMSSGGGSGGGYGNQDQSGGGGSGGYGQQDRGGRGRGGSGGGGGGGGGGYNRSSGGYEPRGRGGGRGGRGGMGGSDRGGFNKFGGPRDQGSRHDSEQDNSDNNTIFVQGLGENVTIESVADYFKQIGIIKTNKKTGQPMINLYTDRETGKLKGEATVSFDDPPSAKAAIDWFDGKEFSGNPIKVSFATRRADFNRGGGNGRGGRGRGGPMGRGGYGGGGSGGGGRGGFPSGGGGGGGQQRAGDWKCPNPTCENMNFSWRNECNQCKAPKPDGPGGGPGGSHMGGNYGDDRRGGRGGYDRGGYRGRGGDRGGFRGGRGGGDRGGFGPGKMDSRGEHRQDCRERPY [R521C] | with no effect
